Assay [1] deals with T1, Histidine-tagged wild-type MntC (pET-19b) (Staphylococcus aureus).
T1 construct: source: E. coli BL21(DE3), purified (HisPur Ni-NTA Agarose, size-exclusion chromatography); not shown: His-tag, N-terminal, kept
T1 chain: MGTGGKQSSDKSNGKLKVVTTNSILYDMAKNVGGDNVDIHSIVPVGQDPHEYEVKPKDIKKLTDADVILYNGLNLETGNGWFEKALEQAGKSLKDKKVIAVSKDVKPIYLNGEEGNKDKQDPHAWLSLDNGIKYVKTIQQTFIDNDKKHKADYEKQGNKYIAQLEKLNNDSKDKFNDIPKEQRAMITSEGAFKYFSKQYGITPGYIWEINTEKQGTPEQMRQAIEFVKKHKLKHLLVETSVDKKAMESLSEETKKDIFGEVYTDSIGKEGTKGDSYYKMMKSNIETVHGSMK
Put plainly: BLI. The conditions noted are these: both partners purified.

Assay [2] has as its target T2, Staphylococcus aureus manganese transporter protein MntC, wild type, recombinant (Staphylococcus aureus).
T2 construct: also called wild type MntC; full length MntC; source: recombinant; cloning, expression and purification previously described [3]
T2 chain: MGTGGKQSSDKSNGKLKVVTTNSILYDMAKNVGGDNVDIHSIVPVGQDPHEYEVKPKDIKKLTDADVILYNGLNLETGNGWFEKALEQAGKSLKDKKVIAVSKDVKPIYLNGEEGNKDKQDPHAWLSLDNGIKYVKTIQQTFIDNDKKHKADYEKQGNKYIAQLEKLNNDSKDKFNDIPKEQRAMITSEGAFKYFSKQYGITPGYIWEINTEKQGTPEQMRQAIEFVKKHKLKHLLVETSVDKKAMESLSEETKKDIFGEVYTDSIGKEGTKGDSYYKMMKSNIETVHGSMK
Put plainly: ITC. The conditions noted are these: both partners purified.

B1: monoclonal antibody mAB 305-78-7 (intact antibody, interference group 2) (antibody, V domains shown)
VH: QVQLQQSGAELARPGASVKMSCKASGYTFTRYTMHWVQQRPGQGLEWIGYINPSSDYTKYNQKFKDKATMTADKSSSTAYMQLSSLTSEDSAVYYCARKEDVGYWYFDFWGTGTTVTVSS
VL: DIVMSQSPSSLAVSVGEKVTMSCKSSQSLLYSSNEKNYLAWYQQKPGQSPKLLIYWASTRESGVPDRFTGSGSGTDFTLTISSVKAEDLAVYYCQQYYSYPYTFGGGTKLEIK
notes: source: generation previously described [3]
As a reminder, the Kd is the concentration at which binding is half-saturated. For orientation: koff means the first-order rate constant of dissociation. The low end stands for slow dissociation, the high end for fast dissociation. Broadly, the kon is a measure of how fast the partners come together. B1: in assay [1], the Kd was 1.2 nM, the koff came to 0.00024 s⁻¹ and the kon came to 220000 M⁻¹ s⁻¹. Besides, in assay [2], the Kd came to 1.2 nM and the dH is -19.9 kcal/mol.
